For this test, the target named is T1, Arkadia SUMO-binding domain (residues 285-416), wild type (mouse, UniProt Q99ML9 285-416).
T1 construct: it holds SIM1, SOB and SIM2; Subcloned into pGEX-TEV/N (TEV site after the thrombin site); also called Arkadia-WT 285-416; SIM domain of Arkadia
T1 sequence (looked up): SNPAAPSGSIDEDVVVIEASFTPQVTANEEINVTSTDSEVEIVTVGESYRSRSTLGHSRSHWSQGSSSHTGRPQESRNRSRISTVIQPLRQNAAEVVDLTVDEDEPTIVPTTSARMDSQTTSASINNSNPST
Description: ITC; iTC200; ITC buffer (50 mM Tris/HCl pH 7.5, 150 mM NaCl, 2 mM DTT, 5% glycerol), 30 °C; 20-30 injections up to a twofold to threefold molar excess; which partner was in the syringe is not told; single titrations and their mean. The following applies: both partners purified. (ITC needs no label: the signal is the heat of the interaction.)

What is called Kd is the concentration at which binding is half-saturated. A low value points to a tighter complex.

“And” between values parts separate entries of the source, which are not always exact repeats. Equal entries are not always repeated.

B1: linear SUMO1-capped SUMO2 trimer (SUMO1-ΔN15 - 2xSUMO2-ΔN11) (other)
chain: KKEGEYIKLKVIGQDSSEIHFKVKMTTHLKKLKESYCQRQGVPMNSLRFLFEGQRIADNHTPKELGMEEEDVIEVYQEQTRSTENNDHINLKVAGQDGSVVQFKIKRHTPLSKLMKAYCERQGLSMRQIRFRFDGQPINETDTPAQLEMEDEDTIDVFQQQTRSTENNDHINLKVAGQDGSVVQFKIKRHTPLSKLMKAYCERQGLSMRQIRFRFDGQPINETDTPAQLEMEDEDTIDVFQQQTGG
On to B1, for which the Kd was 3500 nM and 2100 nM and 2300 nM and 1500 nM.

B2: linear SUMO1-capped SUMO2 dimer (SUMO1-ΔN15 - SUMO2-ΔN11) (other)
chain: KKEGEYIKLKVIGQDSSEIHFKVKMTTHLKKLKESYCQRQGVPMNSLRFLFEGQRIADNHTPKELGMEEEDVIEVYQEQTRSTENNDHINLKVAGQDGSVVQFKIKRHTPLSKLMKAYCERQGLSMRQIRFRFDGQPINETDTPAQLEMEDEDTIDVFQQQTGG
As for B2, the dissociation constant (Kd) was 1400 nM and 3800 nM and 2100 nM.

The values above are taken from paper PMC6695498, “Arkadia/RNF111 is a SUMO-targeted ubiquitin ligase with preference for substrates marked with SUMO1-capped SUMO2/3 chain” (Nature Communications, 2019).
